Data taken from publication doi:10.1101/2023.01.10.523203 (bioRxiv, 2023).
Values joined by “and” are separate entries in the source; they are usually repeats but may differ in a detail not shown here. Equal values may be shown once.

Molecular target: the molecule itself
Test: SEC

B1: LZTR1^L580P recombinant protein (LZTR1-Myc-6xHis with p.L580P) (natural protein)
chain: MAGPGSTGGQIGAAALAGGARSKVAPSVDFDHSCSDSVEYLTLNFGPFETVHRWRRLPPCDEFVGARRSKHTVVAYKDAIYVFGGDNGKTMLNDLLRFDVKDCSWCRAFTTGTPPAPRYHHSAVVYGSSMFVFGGYTGDIYSNSNLKNKNDLFEYKFATGQWTEWKIEGRLPVARSAHGATVYSDKLWIFAGYDGNARLNDMWTIGLQDRELTCWEEVAQSGEIPPSCCNFPVAVCRDKMFVFSGQSGAKITNNLFQFEFKDKTWTRIPTEHLLRGSPPPPQRRYGHTMVAFDRHLYVFGGAADNTLPNELHCYDVDFQTWEVVQPSSDSEVGGAEVPERACASEEVPTLTYEERVGFKKSRDVFGLDFGTTSAKQPTQPASELPSGRLFHAAAVISDAMYIFGGTVDNNIRSGEMYRFQFSCYPKCTLHEDYGRLWESRQFCDVEFVLGEKEECVQGHVAIVTARSRWLRRKITQARERLAQKLEQEAAPVPREAPGVAAGGARPPLLHVAIREAEARPFEVLMQFLYTDKIKYPRKGHVEDVLLIMDVYKLALSFQLCRLEQLCRQYIEASVDLQNVPVVCESAARLQLSQLKEHCLNFVVKESHFNQVIMMKEFERLSSPLIVEIVRRKQQPPPRTPLDQPVDIGTSLIQDMKAYLEGAGAEFCDITLLLDGHPRPAHKAILAARSSYFEAMFRSFMPEDGQVNISIGEMVPSRQAFESMLRYIYYGEVNMPPEDSLYLFAAPYYYGFYNNRLQAYCKQNLEMNVTVQNVLQILEAADKTQALDMKRHCLHIIVHQFTKVSKLPTLRSLSQQLLLDIIDSLASHISDKQCAELGADI
In the case of B1, the “stoichiometry N” value is reported as 6 and 4.
